From patent US20260078398A1, “PLANTS GENETICALLY ENGINEERED FOR INCREASED WATER USE EFFICIENCY AND CARBON INTAKE AND METHODS FOR MAKING AND USING THEM” (The Regents of the University of California, priority 2022, published 2026)

Experiments:
[1] = tested on: MPK4/12, HT1 and CBC1 recombinant proteins; experiment: in vitro phosphorylation assay: NaHCO3-dependent down-regulation of HT1-mediated CBC1 phosphorylation; format: biochemical, Arabidopsis; conditions: isoform replaces wild type protein or is added; 20 mM NaHCO3 vs NaCl control, 30 min
Description: We tested whether this HT1-mediated activation of CBC1 is inhibited by CO2/bicarbonate by adding NaHCO3 in in vitro phosphorylation reactions. […]
FIG. 2. […] Histone was used as an artificial protein kinase substrate. • (B) MPK4, HT1 and CBC1 proteins were incubated with NaHCO3 at the indicated concentrations for 30 min, and in vitro phosphorylation assays were performed. • (C) CBC1 band intensities as shown in (B) were measured using IMAGEJ™, n=4 experiments, error bars show ±S.D. • (D) MPK4, HT1 and CBC1 proteins were incubated in reaction buffers adjusted at different pH (6.5 to 8.5) for 30 min, and in vitro phosphorylation assays were performed. • (E) CBC1 band intensities and the density-ratios of ‘+NaHCO3’ to ‘—NaHCO3’ (=+NaCl controls) for each pH condition
FIG. 3. […] Ambient CO2 concentrations are indicated by the top bars. n=7 experiments, error bars show ±SEM. • (C) Recombinant HT1 (wild type, HT1-G89R or HT1-R173Q) and CBC1 proteins were incubated with MPK4 in the presence or absence of 20 mM NaHCO3 or 20 mM NaCl (−controls) for 30 min, and in vitro phosphorylation assays were performed. • (D) Recombinant MPK12, CBC1 and HT1 (WT or R102K) proteins were incubated with or without 20 mM NaHCO3 or 20 mM NaCl (−controls) for 30 min, and in vitro phosphorylation assays were performed. Histone was used as an artificial kinase substrate. • (E) HT1 (WT or A109V) proteins were used for in vitro phosphorylation assays. Proteins were incubated with or without 20 mM NaHCO3 or 20 mM NaCl (−controls) for 30 min. • (F) Stomatal conductances were analyzed using intact plants of Arabidopsis (Col-0 (WT), cbc1 cbc2, ht1-A109V and cbc1 cbc2 ht1-A109V). CO2 concentration changes were applied as indicated on top (p.p.m.). […]

MPK4 and HT1 = experiment: in vitro pull-down assay, His-HT1 with GST-MPK4; format: binding, Arabidopsis; conditions: pull-down with or without 20 mM NaHCO3
Description: We therefore investigated a possible binding between MPK4 and HT1 and the effect of HCO3^−.
FIG. 4. […] CO2 concentration changes were applied as indicated on top (p.p.m.). n=6 experiments, error bars show ±SEM. • (J) Model of plant stomatal CO2 sensor and signaling (see text).
FIG. 6. […] Precipitated proteins were washed with buffers supplemented with NaHCO3 at the indicated concentrations (0, 2 or 20 mM). See FIG. 4d for an independent experiment. To control for effects of Na^+, 20 mM NaCl (0 mM NaHCO3) for lanes 1 and 4 were included in the buffers; and 18 mM NaCl (2 mM NaHCO3) for lane 3 were included in buffer.

B1: HT1-A109V (protein)
chain: MSGLCFNPFRLRWSLRSKLPLEPSLPNLPCNPSSSKTNRYAEAETMEKKRFDSMESWSMILESENVETWEASKGEREEWTADLSQLFIGNKFASGAHSRIYRGIYKQRVVAVKMVRIPTHKEETRAKLEQQFKSEVALLSRLFHPNIVQFIAACKKPPVYCIITEYMSQGNLRMYLNKKEPYSLSIETVLRLALDISRGMEYLHSQGVIHRDLKSNNLLLNDEMRVKVADFGTSCLETQCREAKGNMGTYRWMAPEMIKEKPYTRKVDVYSFGIVLWELTTALLPFQGMTPVQAAFAVAEKNERPPLPASCQPALAHLIKRCWSENPSKRPDFSNIVAVLEKYDECVKEGLPLTSHASLTKTKKAILDHLKGCVTSISSPFSSSSVPVNA
NaHCO3-triggered down-regulation of CBC1 phosphorylation and CBC1 activity, in vitro phosphorylation assay with MPK4/12 and CBC1 (FIG. 3E, n=4) (MPK4/12): both of these R102K and A109V mutations disrupt the NaHCO3-triggered down-regulation of CBC1 phosphorylation and CBC1 activity | NaHCO3-mediated down-regulation of CBC1 phosphorylation/activity with the protein isoform in the reaction [1]: disrupt the NaHCO3-triggered down-regulation of CBC1 phosphorylation and CBC1 activity | HCO3- dependent binding of HT1 isoform with MPK4 (MPK4 and HT1): did not show a bicarbonate-induced interaction of HT1 with MPK4
